Substrate: NC(=O)c1cccnc1
Experiment: purified protein, by the assay type
Assay type: biochemical
Conditions: other: mouse enzyme; saturating NAD+ and peptide; pH 7.8
Description: After 2 hours, aliquots of 10 μL removed at 0, 30, 60, 90 and 120 min. Each aliquot was combined with 50 μL 50 mM ammonium acetate pH 5.0 to quench and assayed by HPLC for deacetylation products and NAD^+. The chromatograms (260 nm) were obtained using 50 mM ammonium acetate pH 5.0 as eluant on a semi-preparative Waters C-18 column (2.0 mL/min flow rate). Peaks for ADPR and 3′-O-Acetyl-ADPR were quantified by integration. The peak for NAD^+ was collected and radiation counted.

B1: Mouse SIR2 enzyme (SIR2α) (Mus musculus) (protein)
chain: MADEVALALQAAGSPSAAAAMEAASQPADEPLRKRPRRDGPGLGRSPGEPSAAVAPAAAGCEAASAAAPAALWREAAGAAASAEREAPATAVAGDGDNGSGLRREPRAADDFDDDEGEEEDEAAAAAAAAAIGYRDNLLLTDGLLTNGFHSCESDDDDRTSHASSSDWTPRPRIGPYTFVQQHLMIGTDPRTILKDLLPETIPPPELDDMTLWQIVINILSEPPKRKKRKDINTIEDAVKLLQECKKIIVLTGAGVSVSCGIPDFRSRDGIYARLAVDFPDLPDPQAMFDIEYFRKDPRPFFKFAKEIYPGQFQPSLCHKFIALSDKEGKLLRNYTQNIDTLEQVAGIQRILQCHGSFATASCLICKYKVDCEAVRGDIFNQVVPRCPRCPADEPLAIMKPEIVFFGENLPEQFHRAMKYDKDEVDLLIVIGSSLKVRPVALIPSSIPHEVPQILINREPLPHLHFDVELLGDCDVIINELCHRLGGEYAKLCCNPVKLSEITEKPPRPQKELVHLSELPPTPLHISEDSSSPERTVPQDSSVIATLVDQATNNNVNDLEVSESSCVEEKPQEVQTSRNVENINVENPDFKAVGSSTADKNERTSVAETVRKCWPNRLAKEQISKRLEGNQYLFVPPNRYIFHGAEVYSDSEDDVLSSSSCGSNSDSGTCQSPSLEEPLEDESEIEEFYNGLEDDTERPECAGGSGFGADGGDQEVVNEAIATRQELTDVNYPSDKS
notes: purchased Upstate Group
  Km: 127 µM
